This data set has as its target T1, rSAMD9 158-389 (tRNase domain) (Oryctolagus cuniculus (European rabbit; …, UniProt G1U2M9 158-389).
T1 sequence: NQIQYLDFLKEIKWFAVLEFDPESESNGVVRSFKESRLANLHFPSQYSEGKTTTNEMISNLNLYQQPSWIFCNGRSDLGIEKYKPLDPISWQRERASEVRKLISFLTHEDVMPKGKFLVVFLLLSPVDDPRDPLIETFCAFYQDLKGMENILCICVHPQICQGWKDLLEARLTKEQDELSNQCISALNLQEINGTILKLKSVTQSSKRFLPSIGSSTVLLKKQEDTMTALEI
Briefly: EMSA; stable complex predominant at 2:1 protein:dsDNA; no DNA density seen in the crystal; EMSA on 0.8% native agarose gel, EtBr then Coomassie stain; buffer, salt, pH and temperature not given (as in earlier paper). The conditions noted are these: protein: recombinant; tags: 6xHis-SUMO removed by Ulp1; chain copies: 2; blunt.

1 molecule from paper PMC12331169, “Structural and functional studies of rabbit SAMD9 reveal a distinct tRNase module that underlies the antiviral activity” can be followed below.

B1: 26-nt dsDNA (dsDNA)
DNA 1: TATTCAAATTAATGATTTATTCAATT
DNA 2: AATTGAATAAATCATTAATTTGAATA
Take B1: the binding result is given as “binds”.
